The source of these data is patent US20060057696A1, “Sugar chain synthases” (priority 2002, published 2006).

What all share (type): biochemical
Assay [1] deals with T1, PA-hST6Gal II (human ST6Gal II) (Homo sapiens, UniProt Q96JF0).
T1 construct: amino acids 33-529 in the case of human ST6Gal II; signal peptide of mouse immunoglobulin IgM (N); made in house; host or cells: COS-7 cells, transient expression of pcDSA-hST6Gal II; protein recovered from medium on IgG-Sepharose
T1 sequence (Q96JF0 33-529): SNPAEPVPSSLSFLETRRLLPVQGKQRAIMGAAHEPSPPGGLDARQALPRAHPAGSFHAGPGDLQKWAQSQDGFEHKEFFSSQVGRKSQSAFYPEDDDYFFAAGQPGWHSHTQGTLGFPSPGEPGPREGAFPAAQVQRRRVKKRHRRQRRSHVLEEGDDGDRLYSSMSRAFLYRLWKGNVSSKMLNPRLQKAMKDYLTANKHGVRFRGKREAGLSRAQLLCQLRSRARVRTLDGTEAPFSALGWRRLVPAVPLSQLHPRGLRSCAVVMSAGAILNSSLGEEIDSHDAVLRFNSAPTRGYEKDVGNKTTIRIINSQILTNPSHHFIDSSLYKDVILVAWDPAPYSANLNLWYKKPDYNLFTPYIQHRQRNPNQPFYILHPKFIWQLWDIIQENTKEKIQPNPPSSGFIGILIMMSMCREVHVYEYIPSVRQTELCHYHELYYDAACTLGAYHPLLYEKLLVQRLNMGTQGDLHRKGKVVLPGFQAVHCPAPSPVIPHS
In words: Sialyltransferase activity of PA-hST6Gal II toward acceptor substrates. Particulars: PA-hST6Gal II; incorporation with Galβ1,4GlcNAc taken as 100; 0.5 mg/ml glycolipids, 1 mg/ml glycoproteins and oligosaccharides. The procedure:
Using each expression vector and lipofectamine (Invitrogen), transient expression was carried out in COS-7 cells (Kojima, N. et al. (1995) FEBS Lett. 360, 1-4). The proteins of the present invention secreted from the cells into which each expression vector had been introduced were named as PA-hST6Gal II (human) and PA-mST6Gal II (mouse). PA-hST6Gal II and PA-mST6Gal II were adsorbed to IgG-Sepharose (Amersham Pharmacia Biotech), and were then recovered from medium. Sialyltransferase activity was measured as follows according to the method of Lee et al. (Lee, Y.-C. et al. (1999) J Biol. Chem. 274, 11958-11967). A reaction mixture (10 μl) containing 50 mM MES buffer (pH 6.0), 1 mM MgCl2, 1 mM CaCl2, 0.5% Triton CF-54, 100 μM CMP-[^14C]-NeuAc, a substrate sugar chain (which was added at 0.5 mg/ml in the case of glycolipids, and at 1 mg/ml in the case of glycoproteins or oligosaccharides), and a PA-hST6Gal II or PA-mST6Gal II suspension, was incubated at 37° C. for 3 to 20 hours. Thereafter, in the case of glycolipids, the reaction product was purified with a C-18 column (Sep-Pak Vac 100 mg; Waters) and the purified product was used as a sample. In the case of oligosaccharides or glycoproteins, the reaction product was directly used as a sample. Thus, the obtained sample was subjected to analysis. In the case of oligosaccharides or glycolipids, the sample was spotted on a silica gel 60 HPTLC plate (Merck), and it was then developed with a developing solvent consisting of 1-propanol:ammonia water:water=6:1:2.5 (for oligosaccharides), or a developing solvent consisting of chloroform:methanol: 0.02% CaCl2=55:45:10 (for glycolipids). In the case of glycoproteins, analysis was carried out by SDS-polyacrylamide gel electrophoresis. The obtained radioactivities were visualized with a BAS2000 radio image analyzer (Fuji Film) and then quantified.

The target in the next assay is T2, PA-mST8Sia VI (Mus musculus, UniProt Q8K4T1).
T2 construct: amino acids 26-398 in the case of mouse ST8Sia VI; signal peptide of mouse immunoglobulin IgM (N); made in house; host or cells: COS-7 cells, transient expression of pcDSA-mST8Sia VI; protein recovered from medium on IgG-Sepharose
T2 sequence (Q8K4T1 26-398): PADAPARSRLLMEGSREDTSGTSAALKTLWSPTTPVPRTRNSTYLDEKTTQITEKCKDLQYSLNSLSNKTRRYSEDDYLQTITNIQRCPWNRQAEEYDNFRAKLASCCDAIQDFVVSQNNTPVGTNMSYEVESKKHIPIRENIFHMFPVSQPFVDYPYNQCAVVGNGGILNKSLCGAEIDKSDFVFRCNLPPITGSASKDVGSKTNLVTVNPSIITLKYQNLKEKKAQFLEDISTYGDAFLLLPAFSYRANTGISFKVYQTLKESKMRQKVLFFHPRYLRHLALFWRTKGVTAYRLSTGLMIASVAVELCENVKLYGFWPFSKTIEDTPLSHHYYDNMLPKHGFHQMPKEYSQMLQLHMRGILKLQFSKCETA
The experiment in a line: N-glycanase treatment of Fetuin sialylated with [14C]-NeuAc by PA-mST8Sia VI. Particulars: sialylated by PA-mST8Sia VI with [14C]-NeuAc; shows incorporation into O-glycans. The procedure: (§1) In FIG. 4, Fetuin was [^14C]-NeuAc-incorporated by ST8Sia III or ST8Sia VI and then treated with N-glycanase. The [^14C]-NeuAc-incorporated Fetuin was treated with N-glycanase, and the treated product was analyzed by SDS-PAGE. Thereafter, it was visualized with a BAS2000 radio image analyzer.
(§2) It was found by an N-glycanase treatment that when Fetuin was used as a substrate, the majority of sialic acid, which was newly introduced by PA-mST8Sia VI, was incorporated into O-glycans (FIG. 4). That is, when Fetuin was sialylated by PA-mST8Sia VI with [^14C]-NeuAc, and the sialylated product was then treated with N-glycanase, which releases N-glycans from a peptide portion. The majority (82.7%) of radioactivity was still kept in the Fetuin after this treatment. […] On the other hand, the same experiment was carried out using mouse ST8Sia III, which used N-glycans of Fetuin as substrates.

A further assay has as its target T3, mouse ST8Sia III (Mus musculus, UniProt Q64689).
T3 sequence (Q64689 1-380): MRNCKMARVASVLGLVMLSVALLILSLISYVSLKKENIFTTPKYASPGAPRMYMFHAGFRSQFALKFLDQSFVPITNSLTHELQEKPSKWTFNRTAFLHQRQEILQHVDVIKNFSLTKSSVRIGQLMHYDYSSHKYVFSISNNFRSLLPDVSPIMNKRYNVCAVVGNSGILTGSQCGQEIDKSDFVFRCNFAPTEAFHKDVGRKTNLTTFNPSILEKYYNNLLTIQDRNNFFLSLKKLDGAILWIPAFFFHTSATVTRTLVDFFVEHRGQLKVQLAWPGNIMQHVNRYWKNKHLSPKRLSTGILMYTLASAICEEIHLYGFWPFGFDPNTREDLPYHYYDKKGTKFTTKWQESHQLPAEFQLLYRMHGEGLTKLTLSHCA
The experiment in a line: N-glycanase treatment of Fetuin sialylated with [14C]-NeuAc by mouse ST8Sia III. On the procedure: as §1, §2

Regarding Galβ1,4Glcβ1-Cer [Lactosylceramide], the “Relative rate (%) Human ST6Gal II” value in assay [1] amounted to 0%. The same measure, in the same setting: as for “Asialo- α1-Acid glycoprotein: desialylated α1-acid glycoprotein prepared at 80° C. for 1 hour in 0.02 N HCl”, the figure is 1.2%; as for “Galβ1,3GalNAcβ1,4(NeuAcα2,3)Galβ1,4Glcβ1-Cer [GM1a]”, 0%; as for “Asialofetuin: asialo glycoprotein acceptor substrate purchased from Sigma”, 3.9%.

Turning to “α1-Acid glycoprotein: glycoprotein acceptor substrate purchased from Sigma”, the “Relative rate (%) Human ST6Gal II” value in assay [1] is given as 1.2%.

Take “Fetuin: glycoprotein acceptor substrate containing both O-glycans and N-glycans, purchased from Sigma”: the “Relative rate (%) Human ST6Gal II” value in assay [1] is 0%. The “radioactivity still kept in the Fetuin after N-glycanase treatment” value with PA-mST8Sia VI amounted to 82.7%. Also, the “radioactivity in Fetuin after N-glycanase treatment (in words)” value with mouse ST8Sia III was “completely disappeared”. With NeuAcα2,3Galβ1,4Glcβ1-Cer [GM3], the “Relative rate (%) Human ST6Gal II” value in assay [1] worked out at 0%.

B1: Ovomucoid: glycoprotein acceptor substrate which contains only N-glycans (protein, UniProt P01005 25-210, looked up)
Ovomucoid: AEVDCSRFPNATDKEGKDVLVCNKDLRPICGTDGVTYTNDCLLCAYSIEFGTNISKEHDGECKETVPMNCSSYANTTSEDGKVMVLCNRAFNPVCGTDGVTYDNECLLCAHKVEQGASVDKRHDGGCRKELAAVSVDCSEYPKPDCTAEDRPLCGSDNKTYGNKCNFCNAVVESNGTLTLSHFGKC
As to B1, the “Relative rate (%) Human ST6Gal II” value in assay [1] came to 0%.

B2: Asialoovomucoid: desialylated ovomucoid prepared at 80° C. for 1 hour in 0.02 N HCl (protein, UniProt P01005 25-210, looked up)
Ovomucoid: AEVDCSRFPNATDKEGKDVLVCNKDLRPICGTDGVTYTNDCLLCAYSIEFGTNISKEHDGECKETVPMNCSSYANTTSEDGKVMVLCNRAFNPVCGTDGVTYDNECLLCAHKVEQGASVDKRHDGGCRKELAAVSVDCSEYPKPDCTAEDRPLCGSDNKTYGNKCNFCNAVVESNGTLTLSHFGKC
modifications: desialylated
notes: desialylated ovomucoid prepared at 80° C. for 1 hour in 0.02 N HCl
In the case of B2, in assay [1], the “Relative rate (%) Human ST6Gal II” value is recorded as 0%.
